Data on 24 sequences can be found in patent US8147838B2, “Peptide” (priority 2005, dated 2012).

What all share (details): percent of positive control peptide binding; peptide at 1.11×10^−5M
Assay [1] addresses MHC class I allele A*0101 (A1) (Homo sapiens, UniProt P04439, A114D/A174V/A182V/D101N/D185E/E176A/E190D/L180R/Q94H/R68K/S129P/T187R/V100A/V91M/W191G). Put plainly: iTopia peptide binding assay, A*0101. The method, then: (§1) The 9 mers were tested for Peptide Binding, Off Rate and Affinity using iTopia Epitope Discovery System in accordance with the manufacturer's instructions. Briefly, 96 well microtitre plates coated with MHC molecules representing different MHC alleles are used to identify candidate peptides. […] Determinations are performed in duplicate using an ELISA plate reader and included allele specific positive controls.
(§2) i) Peptide Binding—This assay measures the ability of individual peptides to bind to the MHC molecules under standardized optimal binding conditions. The assay is performed for all the test peptides across the selected MHC alleles. The test peptides identified as “binders” are characterized further in terms of affinity and dissociation experiments.
(§3) Following a period of binding under optimal conditions, excess antibody is removed and a measurement of total fluorescence taken (D).
(§4) The binding of the test peptides to the MHC molecules was performed at 1.11×10^−5M of peptide under optimal, standardised test conditions. A control peptide was run in parallel on the same plate and at the same concentration as the test peptides.
(§5) The level of binding is expressed as a percent of positive control peptide binding for each allele.

In assay [2] the target is MHC class I allele A*0201 (A2) (Homo sapiens, UniProt P04439, D140Y/D185E/D98H/E176V/E277Q/G131W/G231S/I119V/I121R/I166T/I218V/L300P/L318F/N151K/N90K/P208A/P217A/Q86G/Q94H/R138H/R169H/T345S). Kind of assay: iTopia peptide binding assay, A*0201. The method, then: as §1, §2, §3, §4, §5
Assay [3] has as its target MHC class I allele A*0301 (A3) (Homo sapiens, UniProt P04439). Put plainly: iTopia peptide binding assay, A*0301. How it is done: as §1, §2, §3, §4, §5
Assay [4] concerns the target MHC class I allele B*0702 (B7) (Homo sapiens, UniProt P01889). Kind of assay: iTopia peptide binding assay, B*0702. The method, then: as §1, §2, §3, §4, §5

In the case of IFLLVLYLN [Peptide 185], the “Peptide binding, MHC Class I Molecule A*0101” value in assay [1] is recorded as 0 % of control. Besides, the “Peptide binding, MHC Class I Molecule A*0201” value in assay [2] is listed as 8 % of control. In assay [3], the “Peptide binding, MHC Class I Molecule A*0301” value is on record as 0 % of control. For the same sequence, the “Peptide binding, MHC Class I Molecule B*0702” value in assay [4] is 2 % of control.
For the sequence DRLTCAYPE [Peptide 160], in assay [1], the “Peptide binding, MHC Class I Molecule A*0101” value is on record as 0 % of control. The “Peptide binding, MHC Class I Molecule A*0201” value in assay [2] is on record as 6 % of control. The “Peptide binding, MHC Class I Molecule A*0301” value in assay [3] is listed as 5 % of control. Moreover, the “Peptide binding, MHC Class I Molecule B*0702” value in assay [4] is reported as 3 % of control.
For AGRALQGLR [Peptide 103], the “Peptide binding, MHC Class I Molecule A*0101” value in assay [1] is recorded as 0 % of control. Moreover, the “Peptide binding, MHC Class I Molecule A*0201” value in assay [2] is on record as 2 % of control. Also, the “Peptide binding, MHC Class I Molecule A*0301” value in assay [3] is 2 % of control. In addition, the “Peptide binding, MHC Class I Molecule B*0702” value in assay [4] is 1 % of control.
Regarding MRNRVLLEL [Peptide 165], the “Peptide binding, MHC Class I Molecule A*0101” value in assay [1] is 0 % of control. Moreover, the “Peptide binding, MHC Class I Molecule A*0201” value in assay [2] is 6 % of control. The “Peptide binding, MHC Class I Molecule A*0301” value in assay [3] is reported as 4 % of control. The “Peptide binding, MHC Class I Molecule B*0702” value in assay [4] was 13 % of control.
As for LCECSEAAR [Peptide 33], the “Peptide binding, MHC Class I Molecule A*0101” value in assay [1] is listed as 3 % of control. The “Peptide binding, MHC Class I Molecule A*0201” value in assay [2] is listed as 8 % of control. In assay [3], the “Peptide binding, MHC Class I Molecule A*0301” value is recorded as 0 % of control. Moreover, in assay [4], the “Peptide binding, MHC Class I Molecule B*0702” value was 0 % of control.
Regarding PAAGDGRLR [Peptide 5], in assay [1], the “Peptide binding, MHC Class I Molecule A*0101” value was 4 % of control. Moreover, in assay [2], the “Peptide binding, MHC Class I Molecule A*0201” value is reported as 5 % of control. Further, the “Peptide binding, MHC Class I Molecule A*0301” value in assay [3] was 4 % of control. Moreover, in assay [4], the “Peptide binding, MHC Class I Molecule B*0702” value was 5 % of control.
For IVPPEDERQ [Peptide 92], the “Peptide binding, MHC Class I Molecule A*0101” value in assay [1] is given as 6 % of control. Moreover, the “Peptide binding, MHC Class I Molecule A*0201” value in assay [2] is recorded as 12 % of control. Moreover, the “Peptide binding, MHC Class I Molecule A*0301” value in assay [3] is 3 % of control. In addition, the “Peptide binding, MHC Class I Molecule B*0702” value in assay [4] is given as 3 % of control.
For the sequence AELQGLPHI [Peptide 140], the “Peptide binding, MHC Class I Molecule A*0101” value in assay [1] is 0 % of control. For the same sequence, the “Peptide binding, MHC Class I Molecule A*0201” value in assay [2] is on record as 9 % of control. Further, the “Peptide binding, MHC Class I Molecule A*0301” value in assay [3] is 1 % of control. In assay [4], the “Peptide binding, MHC Class I Molecule B*0702” value is 0 % of control.
In the case of YHYRYEINA [Peptide 200], the “Peptide binding, MHC Class I Molecule A*0101” value in assay [1] is given as 0 % of control. The “Peptide binding, MHC Class I Molecule A*0201” value in assay [2] is reported as 7 % of control. Moreover, the “Peptide binding, MHC Class I Molecule A*0301” value in assay [3] was 1 % of control. In addition, the “Peptide binding, MHC Class I Molecule B*0702” value in assay [4] is given as 5 % of control.
Turning to VRNLFLTGN [Peptide 47], the “Peptide binding, MHC Class I Molecule A*0101” value in assay [1] is 0 % of control. Besides, in assay [2], the “Peptide binding, MHC Class I Molecule A*0201” value was 5 % of control. In addition, the “Peptide binding, MHC Class I Molecule A*0301” value in assay [3] was 0 % of control. Further, the “Peptide binding, MHC Class I Molecule B*0702” value in assay [4] is 3 % of control.
As to AALNLSGSR [Peptide 61], the “Peptide binding, MHC Class I Molecule A*0101” value in assay [1] is 3 % of control. Moreover, in assay [2], the “Peptide binding, MHC Class I Molecule A*0201” value is reported as 6 % of control. Further, the “Peptide binding, MHC Class I Molecule A*0301” value in assay [3] is reported as 13 % of control. Further, the “Peptide binding, MHC Class I Molecule B*0702” value in assay [4] is 3 % of control.
Regarding NGTLAELQG [Peptide 138], in assay [1], the “Peptide binding, MHC Class I Molecule A*0101” value is 3 % of control. In assay [2], the “Peptide binding, MHC Class I Molecule A*0201” value is 9 % of control. Further, the “Peptide binding, MHC Class I Molecule A*0301” value in assay [3] was 3 % of control. Also, the “Peptide binding, MHC Class I Molecule B*0702” value in assay [4] is listed as 0 % of control.
As for LGIVLALIG [Peptide 180], the “Peptide binding, MHC Class I Molecule A*0101” value in assay [1] is listed as 0 % of control. Also, the “Peptide binding, MHC Class I Molecule A*0201” value in assay [2] was 10 % of control. Moreover, the “Peptide binding, MHC Class I Molecule A*0301” value in assay [3] was 1 % of control. Further, the “Peptide binding, MHC Class I Molecule B*0702” value in assay [4] is given as 0 % of control.
On to RQLDLSHNP [Peptide 73], for which, in assay [1], the “Peptide binding, MHC Class I Molecule A*0101” value was 2 % of control. Moreover, in assay [2], the “Peptide binding, MHC Class I Molecule A*0201” value is listed as 8 % of control. Besides, in assay [3], the “Peptide binding, MHC Class I Molecule A*0301” value is recorded as 2 % of control. For the same sequence, the “Peptide binding, MHC Class I Molecule B*0702” value in assay [4] is on record as 4 % of control.
With EGYHYRYEI [Peptide 199], the “Peptide binding, MHC Class I Molecule A*0101” value in assay [1] is reported as 0 % of control. The “Peptide binding, MHC Class I Molecule A*0201” value in assay [2] is reported as 9 % of control. In addition, the “Peptide binding, MHC Class I Molecule A*0301” value in assay [3] is given as 0 % of control. Further, the “Peptide binding, MHC Class I Molecule B*0702” value in assay [4] was 4 % of control.
On to ETEVVQGKD [Peptide 156], for which, in assay [1], the “Peptide binding, MHC Class I Molecule A*0101” value was 0 % of control. Also, the “Peptide binding, MHC Class I Molecule A*0201” value in assay [2] is on record as 1 % of control. The “Peptide binding, MHC Class I Molecule A*0301” value in assay [3] is given as 3 % of control. Moreover, the “Peptide binding, MHC Class I Molecule B*0702” value in assay [4] was 1 % of control.
Regarding PDQCPALCE [Peptide 30], the “Peptide binding, MHC Class I Molecule A*0101” value in assay [1] was 5 % of control. In addition, the “Peptide binding, MHC Class I Molecule A*0201” value in assay [2] is on record as 3 % of control. The “Peptide binding, MHC Class I Molecule A*0301” value in assay [3] is 0 % of control. In assay [4], the “Peptide binding, MHC Class I Molecule B*0702” value was 1 % of control.
Regarding DEVRAGAFE [Peptide 66], in assay [1], the “Peptide binding, MHC Class I Molecule A*0101” value was 6 % of control. For the same sequence, in assay [2], the “Peptide binding, MHC Class I Molecule A*0201” value is given as 9 % of control. For the same sequence, the “Peptide binding, MHC Class I Molecule A*0301” value in assay [3] is listed as 7 % of control. For the same sequence, the “Peptide binding, MHC Class I Molecule B*0702” value in assay [4] is reported as 12 % of control.
On to ECSEAARTV [Peptide 34], for which the “Peptide binding, MHC Class I Molecule A*0101” value in assay [1] is 2 % of control. Also, the “Peptide binding, MHC Class I Molecule A*0201” value in assay [2] was 4 % of control. The “Peptide binding, MHC Class I Molecule A*0301” value in assay [3] was 0 % of control. Further, the “Peptide binding, MHC Class I Molecule B*0702” value in assay [4] was 0 % of control.
Consider GAIFLLVLY [Peptide 184], for which the “Peptide binding, MHC Class I Molecule A*0101” value in assay [1] is 0 % of control. Further, the “Peptide binding, MHC Class I Molecule A*0201” value in assay [2] is 5 % of control. Also, in assay [3], the “Peptide binding, MHC Class I Molecule A*0301” value is 5 % of control. The “Peptide binding, MHC Class I Molecule B*0702” value in assay [4] is given as 0 % of control.
Take RDHMEGYHY [Peptide 197]: the “Peptide binding, MHC Class I Molecule A*0101” value in assay [1] was 11 % of control. The “Peptide binding, MHC Class I Molecule A*0201” value in assay [2] is listed as 6 % of control. Besides, in assay [3], the “Peptide binding, MHC Class I Molecule A*0301” value is on record as 3 % of control. Also, the “Peptide binding, MHC Class I Molecule B*0702” value in assay [4] is listed as 5 % of control.
As for DLDCDPILP [Peptide 171], in assay [1], the “Peptide binding, MHC Class I Molecule A*0101” value was 0 % of control. Moreover, in assay [2], the “Peptide binding, MHC Class I Molecule A*0201” value is given as 0 % of control. Further, the “Peptide binding, MHC Class I Molecule A*0301” value in assay [3] was 4 % of control. Besides, in assay [4], the “Peptide binding, MHC Class I Molecule B*0702” value is 3 % of control.
Take CSRGPAAGD [Peptide 3]: in assay [1], the “Peptide binding, MHC Class I Molecule A*0101” value is on record as 0 % of control. Also, the “Peptide binding, MHC Class I Molecule A*0201” value in assay [2] is recorded as 3 % of control. In assay [3], the “Peptide binding, MHC Class I Molecule A*0301” value is listed as 5 % of control. Also, in assay [4], the “Peptide binding, MHC Class I Molecule B*0702” value was 3 % of control.
As for VVAALLAGR [Peptide 100], in assay [1], the “Peptide binding, MHC Class I Molecule A*0101” value is listed as 9 % of control. Moreover, the “Peptide binding, MHC Class I Molecule A*0201” value in assay [2] is recorded as 11 % of control. Also, in assay [3], the “Peptide binding, MHC Class I Molecule A*0301” value is recorded as 49 % of control. The “Peptide binding, MHC Class I Molecule B*0702” value in assay [4] is reported as 7 % of control.
